Assay results reported in patent publication US20240101667A1, “METHODS FOR IDENTIFYING LILRB-BLOCKING ANTIBODIES” (THE BOARD OF REGENTS OF THE UNIVERSITY OF TEXAS SYSTEM, priority 2020, published 2024).

How the values were obtained:
Assay type in all cases: in vivo, mouse
[1] = test system: THP-1 cells; assay: NSG mice xenografted with THP-1 cells
Source text: FIGS. 7A-N. Blocking anti-LILRB3 antibody prevents monocytic AML development. (FIG. 7A) Epitope binning of 30 high-affinity IgGs. (FIG. 7B) CFU assay of mouse MLL-AF9 AML cells in the presence of above IgGs (n=3 independent experiments). (FIG. 7C) Binding affinities of the two IgGs from bin #3. (FIG. 7D) Upper: Schematic of treatment. Lower: Percentages of GFP^+ MLL-AF9 mouse AIL cells in peripheral blood (PB), bone marrow (BM), spleen (SPL), and liver (LV) of mice transplanted with AML cells expressing B3-FL or B3delICD and injected with IgG or anti-LILRB3 #1 N297A (n=3 independent mice). (FIG. 7E) Overall survival of mice transplanted with indicated AML cells as above. (FIG. 7F) CFU assay of MLL-AF9 mouse AML cells expressing B3-FL or B3delICD in the presence of IgG or anti-LILRB3 #1 N297A (n=3 independent experiments) (FIG. 7G) Upper: Schematic of treatment. Recipient mice were injected with mouse IgG or anti-mCD8 to deplete CD8 T cells. Lower: Percentages of GFP^+ MLL-AF9 mouse AML cells in peripheral blood (PB), bone marrow (BM), spleen (SPL), and liver (LV) of mice transplanted with AML cells expressing B3-FL or B3delICD and injected with IgG or anti-LILRB3 #1 LALAPG (n=4 mice). […] The data are presented as mean±s.e.m, and p values were calculated by two-tailed t-test except for FIG. 7E, FIG. 7H, FIG. 7J and FIG. 7M by log-rank test. […]

[2] = test system: human AML cells (CD45+/CD33+); assay: M5 AML patient-derived xenograft in NSG mice (primary transplantation)
Source text: (FIG. 8A) Upper: Schematic of treatment. NSG mice were transplanted with monocytic AML patient peripheral blood sample (depleted red blood cells) and given IgG or #1NA. […] (FIG. 8C) The percentages of human T cells in NSG mice treated as indicated in panel a (n=8 independent mice). (FIG. 8D) Overall survival of the NSG mice treated as indicated in panel a (n=8 independent mice). (FIG. 8E) Schematic of treatment. NSG mice were transplanted with monocytic AML cells (derived from BM of NSG mice engrafted with monocytic AML patient peripheral blood samples) with treatment of IgG or anti-LILRB3 #1 LALAPG. (FIG. 8F) Flow cytometry analyses of LILRB3 expression on human AML cells in the mouse bone marrow. (FIG. 8G) The percentages of human AML cells (CD45^+/CD33^+) in NSG mice after treatment of IgG or #1NA as indicated in panel e. (n=5 independent mice). (FIG. 8H) The percentages of human T cells in NSG mice treated as indicated in panel e (n=5 independent mice). (FIG. 8I), Survival of NSG mice treated as indicated in panel e (n=5 independent mice). The data are presented as mean s.e.m, and p values were calculated by two-tailed t-test except for d and i by log-rank test.
Primary human leukemia. The primary human AML samples was obtained from the University of Texas Southwestern Medical Center. […] For primary transplantation, leukemia cells isolated from donor peripheral blood was injected into irradiated NSG mice (200 cGy), and antibody or IgG was introduced intravenously 8 days after injection. For secondary transplantation, human leukemia cells from frozen BM of NSG mice that were engrafted with patient AML cells were transplanted into sublethally-irradiated NSG recipients.

[3] = test system: Molm13 AML cells; assay: NSG mice with Molm13 AML cells and activated human T cells
Source text: FIGS. 7A-N. Blocking anti-LILRB3 antibody prevents monocytic AML development. (FIG. 7A) Epitope binning of 30 high-affinity IgGs. (FIG. 7B) CFU assay of mouse MLL-AF9 AML cells in the presence of above IgGs (n=3 independent experiments). (FIG. 7C) Binding affinities of the two IgGs from bin #3. (FIG. 7D) Upper: Schematic of treatment. Lower: Percentages of GFP^+ MLL-AF9 mouse AIL cells in peripheral blood (PB), bone marrow (BM), spleen (SPL), and liver (LV) of mice transplanted with AML cells expressing B3-FL or B3delICD and injected with IgG or anti-LILRB3 #1 N297A (n=3 independent mice). (FIG. 7E) Overall survival of mice transplanted with indicated AML cells as above. (FIG. 7F) CFU assay of MLL-AF9 mouse AML cells expressing B3-FL or B3delICD in the presence of IgG or anti-LILRB3 #1 N297A (n=3 independent experiments) (FIG. 7G) Upper: Schematic of treatment. Recipient mice were injected with mouse IgG or anti-mCD8 to deplete CD8 T cells. Lower: Percentages of GFP^+ MLL-AF9 mouse AML cells in peripheral blood (PB), bone marrow (BM), spleen (SPL), and liver (LV) of mice transplanted with AML cells expressing B3-FL or B3delICD and injected with IgG or anti-LILRB3 #1 LALAPG (n=4 mice). (FIG. 7H) Survival of mice as in panel h (n=4 independent mice). (FIG. 7I) Upper: Schematic of treatment. Lower: Whole-body images of NSG mice transplanted with luciferase-expressing THP-1 cells and treated with IgG or anti-LILRB3 #1 N297A (#1NA). (FIG. 7J) Overall survival of the mice shown in panel h (n=3 independent mice). (FIG. 7K) Upper: Schematic of treatment. Lower: Whole-body images of NSG mice transplanted with luciferase-expressing Molm13 cells, injected with activated T cells, and treated with IgG or #1NA. (FIG. 7L) Luciferase signaling as a function of time in mice treated as described in panel k. (FIG. 7M) Overall survival of mice treated as described in panel k (n=3 independent mice). (FIG. 7N) Analyses of T cells in peripheral blood of mice treated as described in panel 1 at 22 days after Molm13 AML cell transplantation. Upper: Flow cytometry analyses. Lower: Plot of T cell percentages (n=3 independent mice). The data are presented as mean±s.e.m, and p values were calculated by two-tailed t-test except for FIG. 7E, FIG. 7H, FIG. 7J and FIG. 7M by log-rank test.
Mice. C57BL/6J and NOD-SCID IL2Rγ-null (NSG) mice were purchased from and maintained at the animal core facility of the University of Texas Southwestern Medical Center. GFP-specific TCR mice (Jedi mice, JAX lab stock No: 028062) were purchased from the Jackson Lab. C57BL/6J CD45.1 mice were injected intraperitoneally with 1×10^6 irradiated MLL-AF9 mouse AML cells (3000 cGy) and LPS or LPS alone as a control. The injection was repeated 10 days later. […]

B1: anti-LILRB3 #1 N297A: IgG #1 with Fc glycosylation N297A mutation, defective Fc-mediated effector functions (antibody, V domains shown)
VH: EVQLVESGGGVVQPGRSLRLSCAASGFTFSSYGMHWVRQAPGKGLEWVAFIRYDGSNKYYADSVKGRFTISRDNSKNTLYLQMNSLRAEDTAVYYCAKAGFSGWYYYGMDVWGQGTMVTVSS
VL: DIVMTQSPSSLSASVGDRLTITCRASQSISTYLNWYQQKPGKAPKLLIYGASSLQSGVPSRFSGSGSGTDFTLTISSLQPEDFATYFCQQSYGLPLTFGGGTKVDIK
leukemia development ([1]; NSG mice, THP-1 xenograft, versus controls): significantly delayed leukemia development | LILRB3 signaling in THP-1 cells (NF-κB target gene expression by qPCR) ([1]; THP-1 cells from BM of xenografted NSG mice): decreased | percentages of human autologous T cells ([2]; NSG mice): increased the percentages of human autologous T cells | AML burden in peripheral blood, bone marrow, spleen, and liver ([2]; versus IgG): significantly lower AML burden | survival ([2]; versus control IgG): significant survival advantage | effect on mice without the injection of T cells ([3]; no T cells): little effect | T cells in treated mice ([3]; peripheral blood, 22 days after Molm13 transplantation, versus IgG): significantly more T cells | leukemia in one of the treated mice ([3]; with activated human T cells): largely eliminated | leukemia progression ([3]; with activated human T cells, antibody at day 8, versus IgG): significantly slower
